Measured values reported in patent US20250339531A1, “DUX4 POLYPEPTIDES AND NUCLEIC ACIDS FOR TREATING INFLAMMATORY AND AUTOIMMUNE CONDITIONS” (Fred Hutchinson Cancer Center, priority 2021, published 2025).

Legend:
Assay in all cases: anti-FLAG co-IP LC-MS, exp 4, +Dox +IFNG
[1] = biological target: 40S ribosomal protein S4, X isoform (Homo sapiens) (UniProt P62701)
[2] = biological target: Alpha-actinin-1 (Homo sapiens) (UniProt P12814)
[3] = biological target: Heterogeneous nuclear ribonucleoprotein K (Homo sapiens) (UniProt P61978)
[4] = biological target: Spectrin beta chain (Homo sapiens) (UniProt Q01082)
[5] = biological target: Clathrin heavy chain (Homo sapiens) (UniProt Q00610)
[6] = biological target: Dynactin subunit 1 (Homo sapiens) (UniProt Q14203)
[7] = biological target: Neuroblast differentiation-associated protein AHNAK (Homo sapiens) (UniProt Q09666)
[8] = biological target: Procollagen-lysine, 2-oxoglutarate 5-dioxygenase 1 (Homo sapiens) (UniProt Q02809)
[9] = biological target: Capping protein (Actin filament) muscle Z-line, beta, isoform CRA_d (Homo sapiens) (UniProt B1AK88)
[10] = biological target: Elongation factor 1-alpha 1 (Homo sapiens) (UniProt P68104)
[11] = biological target: Tubulin beta chain (Homo sapiens) (UniProt P07437)
[12] = biological target: Phosphate carrier protein, mitochondrial (Homo sapiens) (UniProt Q00325)
[13] = biological target: Heat shock 70 kDa protein 1B (Homo sapiens) (UniProt P0DMV9)
[14] = biological target: Serine/threonine-protein kinase 38 (Homo sapiens) (UniProt Q15208)
[15] = biological target: Serine/threonine-protein phosphatase 2A 65 kDa regulatory subunit A alpha isoform (Homo sapiens) (UniProt P30153)
[16] = biological target: Calpain-2 catalytic subunit (Homo sapiens) (UniProt P17655)
[17] = biological target: ADP/ATP translocase 2 (Homo sapiens) (UniProt P05141)
[18] = biological target: Ras GTPase-activating protein-binding protein 1 (Homo sapiens) (UniProt Q13283)
Vimentin (Homo sapiens) = Vimentin (Homo sapiens) (UniProt P08670)
[19] = biological target: Prostate tumor-overexpressed gene 1 protein (Homo sapiens) (UniProt Q86YD1)
[20] = biological target: 60S ribosomal protein L13 (Homo sapiens) (UniProt P26373)
Nestin (Homo sapiens) = Nestin (Homo sapiens) (UniProt P48681)
[21] = biological target: Stress-70 protein, mitochondrial (Homo sapiens) (UniProt P38646)
[22] = biological target: Protein S100-A6 (Homo sapiens) (UniProt P06703)
[23] = biological target: Nucleosome assembly protein 1-like 1 (Homo sapiens) (UniProt P55209)
[24] = biological target: Eukaryotic initiation factor 4A-II (Homo sapiens) (UniProt Q14240)
[25] = biological target: Probable ubiquitin carboxyl-terminal hydrolase FAF-X (Homo sapiens) (UniProt Q93008)
[26] = biological target: 40S ribosomal protein S3 (Homo sapiens) (UniProt P23396)
[27] = biological target: Galectin-7 (Homo sapiens) (UniProt P47929)
[28] = biological target: 60 kDa heat shock protein, mitochondrial (Homo sapiens) (UniProt P10809)
[29] = biological target: Coronin-1C (Homo sapiens) (UniProt Q9ULV4)
[30] = biological target: Importin subunit beta-1 (Homo sapiens) (UniProt Q14974)
[31] = biological target: Actin-related protein 3 (Homo sapiens) (UniProt P61158)
[32] = biological target: Tubulin alpha chain (Homo sapiens) (UniProt F5H5D3)
[33] = biological target: T-complex protein 1 subunit theta (Homo sapiens) (UniProt P50990)
[34] = biological target: Transcription intermediary factor 1-beta (Homo sapiens) (UniProt Q13263)

Chain of Ras GTPase-activating protein-binding protein 1 (Homo sapiens) (Q13283 2-466 limits assumed): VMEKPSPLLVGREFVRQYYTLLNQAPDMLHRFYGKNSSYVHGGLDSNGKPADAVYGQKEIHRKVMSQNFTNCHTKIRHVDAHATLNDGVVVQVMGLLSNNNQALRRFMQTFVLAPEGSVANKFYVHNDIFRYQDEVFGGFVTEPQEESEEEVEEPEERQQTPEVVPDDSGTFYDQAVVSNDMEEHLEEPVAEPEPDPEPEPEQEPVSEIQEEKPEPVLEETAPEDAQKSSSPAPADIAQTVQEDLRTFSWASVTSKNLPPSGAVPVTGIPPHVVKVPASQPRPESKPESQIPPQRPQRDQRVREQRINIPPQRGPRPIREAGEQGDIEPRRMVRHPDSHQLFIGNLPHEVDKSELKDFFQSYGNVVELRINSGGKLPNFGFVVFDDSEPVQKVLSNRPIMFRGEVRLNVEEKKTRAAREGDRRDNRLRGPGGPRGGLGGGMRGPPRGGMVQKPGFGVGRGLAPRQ
Chain of Nucleosome assembly protein 1-like 1 (Homo sapiens) (P55209 2-388 limits assumed): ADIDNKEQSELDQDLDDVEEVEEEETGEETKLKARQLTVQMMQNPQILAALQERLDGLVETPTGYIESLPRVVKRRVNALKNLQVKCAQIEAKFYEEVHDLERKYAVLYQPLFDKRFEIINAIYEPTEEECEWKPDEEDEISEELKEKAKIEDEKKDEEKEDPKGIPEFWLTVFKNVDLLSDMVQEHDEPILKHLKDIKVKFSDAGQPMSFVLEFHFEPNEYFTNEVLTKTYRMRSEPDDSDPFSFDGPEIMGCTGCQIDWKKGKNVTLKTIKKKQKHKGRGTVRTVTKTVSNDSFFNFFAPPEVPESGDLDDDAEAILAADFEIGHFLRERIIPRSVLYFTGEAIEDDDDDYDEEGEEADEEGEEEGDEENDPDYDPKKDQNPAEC
Chain of Vimentin (Homo sapiens) (P08670 2-466 limits assumed): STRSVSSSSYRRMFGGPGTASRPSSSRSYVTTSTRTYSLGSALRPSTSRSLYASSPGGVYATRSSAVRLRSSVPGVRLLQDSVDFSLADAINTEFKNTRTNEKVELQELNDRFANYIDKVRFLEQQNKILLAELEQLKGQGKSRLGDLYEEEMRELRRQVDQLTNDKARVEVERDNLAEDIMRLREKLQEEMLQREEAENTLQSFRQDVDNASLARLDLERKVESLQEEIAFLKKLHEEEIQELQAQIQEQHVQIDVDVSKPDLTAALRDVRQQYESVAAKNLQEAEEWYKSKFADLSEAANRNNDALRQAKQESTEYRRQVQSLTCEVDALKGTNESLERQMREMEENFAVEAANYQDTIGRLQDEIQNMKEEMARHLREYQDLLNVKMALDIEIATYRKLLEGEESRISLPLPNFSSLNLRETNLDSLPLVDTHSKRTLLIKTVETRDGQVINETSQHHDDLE
Chain of Coronin-1C (Homo sapiens) (Q9ULV4 whole entry): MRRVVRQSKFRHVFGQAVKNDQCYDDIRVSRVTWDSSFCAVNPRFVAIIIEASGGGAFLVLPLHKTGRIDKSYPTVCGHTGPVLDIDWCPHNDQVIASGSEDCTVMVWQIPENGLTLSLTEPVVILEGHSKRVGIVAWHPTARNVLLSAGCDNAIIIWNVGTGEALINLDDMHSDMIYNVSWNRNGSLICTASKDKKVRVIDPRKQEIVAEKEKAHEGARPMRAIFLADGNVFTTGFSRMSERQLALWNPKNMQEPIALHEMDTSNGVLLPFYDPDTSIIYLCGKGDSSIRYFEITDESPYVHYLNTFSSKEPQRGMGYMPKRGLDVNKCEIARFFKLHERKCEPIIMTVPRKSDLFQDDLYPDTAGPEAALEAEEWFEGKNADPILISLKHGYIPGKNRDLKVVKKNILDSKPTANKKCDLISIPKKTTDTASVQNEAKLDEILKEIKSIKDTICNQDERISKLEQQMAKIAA
Chain of Calpain-2 catalytic subunit (Homo sapiens) (P17655 2-700 limits assumed): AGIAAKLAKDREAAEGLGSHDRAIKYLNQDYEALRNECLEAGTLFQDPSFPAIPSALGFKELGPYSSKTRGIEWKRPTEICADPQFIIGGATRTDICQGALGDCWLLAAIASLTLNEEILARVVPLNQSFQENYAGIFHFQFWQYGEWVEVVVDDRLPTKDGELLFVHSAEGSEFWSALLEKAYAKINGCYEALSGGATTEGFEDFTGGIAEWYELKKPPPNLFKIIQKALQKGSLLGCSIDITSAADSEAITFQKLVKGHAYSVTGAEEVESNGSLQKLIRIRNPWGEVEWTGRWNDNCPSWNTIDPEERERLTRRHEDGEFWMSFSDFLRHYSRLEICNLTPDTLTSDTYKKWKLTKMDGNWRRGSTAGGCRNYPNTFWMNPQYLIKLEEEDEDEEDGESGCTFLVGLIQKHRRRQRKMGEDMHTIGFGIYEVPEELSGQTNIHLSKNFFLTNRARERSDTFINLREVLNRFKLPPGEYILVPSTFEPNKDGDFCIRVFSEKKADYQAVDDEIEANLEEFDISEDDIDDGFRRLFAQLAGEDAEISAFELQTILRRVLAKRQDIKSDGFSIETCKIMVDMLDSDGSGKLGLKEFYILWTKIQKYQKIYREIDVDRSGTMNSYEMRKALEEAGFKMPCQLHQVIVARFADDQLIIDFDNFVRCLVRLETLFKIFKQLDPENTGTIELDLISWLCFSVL
Chain of Importin subunit beta-1 (Homo sapiens) (Q14974 whole entry): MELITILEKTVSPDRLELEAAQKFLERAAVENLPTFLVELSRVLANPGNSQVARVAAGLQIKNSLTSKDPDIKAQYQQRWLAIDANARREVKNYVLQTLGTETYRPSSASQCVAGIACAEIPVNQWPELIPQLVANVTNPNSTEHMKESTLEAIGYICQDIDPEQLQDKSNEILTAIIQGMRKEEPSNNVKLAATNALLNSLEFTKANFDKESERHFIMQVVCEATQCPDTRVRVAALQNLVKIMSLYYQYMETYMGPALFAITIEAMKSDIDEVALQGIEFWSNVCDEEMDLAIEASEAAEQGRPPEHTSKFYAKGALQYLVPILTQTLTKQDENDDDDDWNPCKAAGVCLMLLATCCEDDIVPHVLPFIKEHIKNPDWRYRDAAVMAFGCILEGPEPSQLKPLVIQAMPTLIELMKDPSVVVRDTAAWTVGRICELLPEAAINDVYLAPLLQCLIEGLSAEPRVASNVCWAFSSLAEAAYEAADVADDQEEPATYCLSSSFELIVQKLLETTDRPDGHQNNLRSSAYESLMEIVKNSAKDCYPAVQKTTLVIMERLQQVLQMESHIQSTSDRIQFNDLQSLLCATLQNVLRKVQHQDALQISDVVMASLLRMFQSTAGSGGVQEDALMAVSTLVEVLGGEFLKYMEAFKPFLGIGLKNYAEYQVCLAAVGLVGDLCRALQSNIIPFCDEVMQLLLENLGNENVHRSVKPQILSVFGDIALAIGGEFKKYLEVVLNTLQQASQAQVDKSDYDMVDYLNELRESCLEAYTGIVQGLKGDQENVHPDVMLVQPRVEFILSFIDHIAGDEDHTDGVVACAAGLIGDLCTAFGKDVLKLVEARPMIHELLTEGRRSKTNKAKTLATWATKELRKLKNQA
Chain of Galectin-7 (Homo sapiens) (P47929 whole entry): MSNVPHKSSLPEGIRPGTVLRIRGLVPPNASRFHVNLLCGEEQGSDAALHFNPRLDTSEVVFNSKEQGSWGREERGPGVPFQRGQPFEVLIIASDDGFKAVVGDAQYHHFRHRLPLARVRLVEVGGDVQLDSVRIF
Chain of T-complex protein 1 subunit theta (Homo sapiens) (P50990 2-548 limits assumed, one chain of several): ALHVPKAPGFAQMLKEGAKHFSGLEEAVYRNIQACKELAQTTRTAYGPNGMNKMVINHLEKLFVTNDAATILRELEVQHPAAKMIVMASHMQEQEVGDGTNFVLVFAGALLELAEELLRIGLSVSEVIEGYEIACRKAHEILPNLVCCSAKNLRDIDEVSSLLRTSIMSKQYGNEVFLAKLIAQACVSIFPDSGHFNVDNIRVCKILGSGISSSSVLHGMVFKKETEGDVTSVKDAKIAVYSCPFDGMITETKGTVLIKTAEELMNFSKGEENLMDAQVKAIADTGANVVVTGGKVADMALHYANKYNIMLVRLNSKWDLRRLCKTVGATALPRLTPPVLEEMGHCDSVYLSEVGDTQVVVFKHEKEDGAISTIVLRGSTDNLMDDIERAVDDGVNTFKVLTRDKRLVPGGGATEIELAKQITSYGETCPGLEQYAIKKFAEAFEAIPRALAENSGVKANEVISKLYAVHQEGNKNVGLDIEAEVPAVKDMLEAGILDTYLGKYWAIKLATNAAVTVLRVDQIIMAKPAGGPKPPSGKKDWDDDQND
Chain of 60 kDa heat shock protein, mitochondrial (Homo sapiens) (P10809 27-573 limits assumed): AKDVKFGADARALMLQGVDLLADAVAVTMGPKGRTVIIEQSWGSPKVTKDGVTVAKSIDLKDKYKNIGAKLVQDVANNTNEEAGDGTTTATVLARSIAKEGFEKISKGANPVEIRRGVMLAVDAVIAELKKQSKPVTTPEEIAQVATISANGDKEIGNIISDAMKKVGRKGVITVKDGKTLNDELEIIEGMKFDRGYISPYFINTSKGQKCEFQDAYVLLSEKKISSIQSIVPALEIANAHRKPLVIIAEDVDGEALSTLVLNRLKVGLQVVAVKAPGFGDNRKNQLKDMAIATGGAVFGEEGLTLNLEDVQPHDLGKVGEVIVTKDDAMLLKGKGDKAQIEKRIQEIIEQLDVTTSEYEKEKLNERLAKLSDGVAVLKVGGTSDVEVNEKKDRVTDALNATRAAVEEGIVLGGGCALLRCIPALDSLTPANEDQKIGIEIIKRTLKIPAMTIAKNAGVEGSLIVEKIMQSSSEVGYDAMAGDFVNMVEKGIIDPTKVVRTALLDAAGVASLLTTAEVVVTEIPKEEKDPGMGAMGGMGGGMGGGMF
Chain of Capping protein (Actin filament) muscle Z-line, beta, isoform CRA_d (Homo sapiens) (B1AK88 entry or part of it limits assumed, form in doubt): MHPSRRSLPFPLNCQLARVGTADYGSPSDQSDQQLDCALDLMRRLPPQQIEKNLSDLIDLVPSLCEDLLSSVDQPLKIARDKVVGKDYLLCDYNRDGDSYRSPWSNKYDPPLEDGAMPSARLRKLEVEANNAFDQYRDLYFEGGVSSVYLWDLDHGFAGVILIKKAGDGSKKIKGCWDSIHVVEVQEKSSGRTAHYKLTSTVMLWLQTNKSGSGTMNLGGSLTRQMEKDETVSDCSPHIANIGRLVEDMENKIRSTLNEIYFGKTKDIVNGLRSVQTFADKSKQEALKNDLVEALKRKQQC

In the case of i3XFLAG-NLS-CTDaa154-424, the PSMs [1] is reported as 3 PSMs, the PSMs [2] is reported as 34 PSMs and the PSMs [3] is reported as 6 PSMs. The PSMs [4] was 3 PSMs, the PSMs [5] was 28 PSMs and the PSMs [6] was 2 PSMs. The PSMs [7] was 1 PSMs, the PSMs [8] was 6 PSMs and the PSMs [9] was 11 PSMs. The PSMs [10] was 9 PSMs, the PSMs [11] was 110 PSMs and the PSMs [12] was 2 PSMs. The PSMs [13] was 29 PSMs, the PSMs [14] was 6 PSMs and the PSMs [15] was 2 PSMs. The PSMs [16] was 3 PSMs, the PSMs [17] was 6 PSMs and the PSMs [18] was 2 PSMs. The PSMs (Vimentin (Homo sapiens)) was 55 PSMs, the PSMs [19] was 2 PSMs and the PSMs [20] was 2 PSMs. The PSMs (Nestin (Homo sapiens)) was 2 PSMs, the PSMs [21] was 7 PSMs and the PSMs [22] was 2 PSMs. It also gave a PSMs [23] of 3 PSMs, a PSMs [24] of 6 PSMs and a PSMs [25] of 3 PSMs. For the same substance, the PSMs [26] was 11 PSMs, the PSMs [27] was 6 PSMs and the PSMs [28] was 5 PSMs. For the same substance, the PSMs [29] was 7 PSMs, the PSMs [30] was 3 PSMs and the PSMs [31] was 3 PSMs. For the same substance, the PSMs [32] was 25 PSMs, the PSMs [33] was 3 PSMs and the PSMs [34] was 2 PSMs.
